Reference: patent US20160340421A1 (Regeneron, published 2016)
Ends that are not written are not given here. * marks the point of attachment. Biotin = O=C1N[C@H]2[C@H](CS[C@H]2CCCCC(=O)*)N1

Key:
[1] = biological target: T1, Inhibin beta A chain (from serum of treated C57BL6 mice) (mouse, UniProt Q04998 309-424, limits assumed); test: pull-down from serum of treated mice with anti human Fc beads, mass spectrometry
T1 sequence (looked up): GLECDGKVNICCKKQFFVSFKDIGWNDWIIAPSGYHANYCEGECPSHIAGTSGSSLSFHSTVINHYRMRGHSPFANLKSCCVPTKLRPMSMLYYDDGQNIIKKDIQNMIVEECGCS
Description: (§1) To examine the specificity of H4H1657N2 in vivo, C57BL6 mice were injected with drug, and serum from treated mice was subjected to a mass spectrometry based ligand “fishing” experiment. Briefly, drug (H4H1657N2, Control IV or isotype negative control) was injected multiple times (Day 0, D3, D7, D10) over a 14-day period into C57BL6 mice. Animals were sacrificed on D14 and serum was incubated with anti human Fc beads. The beads were washed and bound material was eluted with SDS-PAGE loading buffer. Eluted material was subjected to SDS-PAGE and gel slices corresponding to a molecular weight range of 5-20 kDa were excised. Samples were processed for mass spectrometry using standard reduction, alkylation and trypsinization conditions. Digests were separated on a nano C18 column and automatically spotted onto Bruker Anchor Targets. MALDI-MS (MS/MS) analysis (Bruker Ultraflextreme) was performed in an automated fashion, using LC-WARP (Bruker Daltonics). The mass spectra were searched using MASCOT (Matrix Science) and results were evaluated relative to the isotype control.

[2] = biological target: T2, GDF11 (from serum of treated C57BL6 mice) (mouse, UniProt Q9Z1W4 297-405, limits assumed); test: as above
T2 sequence (looked up): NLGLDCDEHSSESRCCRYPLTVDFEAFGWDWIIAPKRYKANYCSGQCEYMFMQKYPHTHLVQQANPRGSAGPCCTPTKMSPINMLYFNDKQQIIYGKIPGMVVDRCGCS
Description: as §1

[3] = biological target: T3, Human GDF8 homodimer (mature human Growth and Differentiation Factor-8) (human, UniProt O14793 267-375); test: SPR Biacore T100, captured on anti-hFc, 25°C
T3 construct: also called hGDF8; myostatin
T3 sequence: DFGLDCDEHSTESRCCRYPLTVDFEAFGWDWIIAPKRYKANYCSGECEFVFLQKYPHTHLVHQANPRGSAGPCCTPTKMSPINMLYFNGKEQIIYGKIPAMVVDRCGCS
Description: (§2) Additional antigen binding experiments were conducted in which GDF8 and GDF11 were applied over a surface of selected anti-GDF8 antibodies and control antibodies at 25° C. and 37° C. Equilibrium dissociation constants (KD values) for antigen binding to selected antibodies were determined by surface kinetics using a real-time biosensor surface plasmon resonance assay (BIACORE™ T100). […] Various concentrations (2.5-0.625 nM, 2-fold dilutions) of hGDF8 homodimer or hGDF11 homodimer (or in some experiments, Activin A) were injected over the captured antibody surfaces, and antigen-antibody binding and dissociation were monitored in real time. Kinetic analysis was performed to calculate KD, dissociation rate constants (kd), association rate constants (ka) and half-life of antigen/antibody complex dissociation. (NB=no binding observed).

hGDF11 homodimer = biological target: T4, hGDF11 homodimer (human, UniProt O95390 299-407); test: GDF11-inducible luciferase bioassay, 0.4 nM GDF11 (legend: NB=no binding)
T4 sequence (looked up): T2 sequence (looked up)

[4] = biological target: T5, hGDF8 peptide 14 (91-105), N-terminal biotinylated (human); test: Luminex peptide beads
T5 construct: also called peptide 14 N-term
T5 peptide: Biotin-EQIIYGKIPAMVVDR
From the text: (§3) Fourteen peptides (Table 10) were generated from mature hGDF8 (SEQ ID NO:340). Unmodified peptides, N-terminal biotinylated peptides (N-term), or C-terminal biotinylated peptides (C-term) were used to test and localize antibody binding. Full-length hGDF8, hGDF11 and unmodified peptides were each individually amine-coupled to xMAP® Multi-Analyte COOH Microspheres (or beads). Each of the biotinylated peptides was bound to xMAP® Multi-Analyte LumAvidin Microspheres. Peptide-bound beads suspension were then mixed with an equal volume of blocking buffer (PBS, 1%13SA, 0.05% Tween20, 0.05% Sodium azide) and then distributed into a 96 well filter plate (Millipore, MULTISCREEN® BV). Control and test anti-hGDF8 antibodies, at 2.5 μg/ml were then added to the peptide-bound beads suspension and were allowed to bind to the beads at RT, overnight. The antibody-incubated beads were then washed twice with PBST (PBS+0.05% Tween20) and incubated with either Phycoerythrin (PE) conjugated anti-hFC or PE-conjugated anti-mFC antibodies at RT for 45 min. The beads were washed again and the antibody binding signal to various peptides were detected with either LUMINEX® 100™ or 200™ instruments.

[5] = biological target: T6, hGDF8 peptide 3 (17-42), N-terminal biotinylated (human, N-terminal biotin); test: Luminex peptide beads
T6 construct: also called peptide 3 N-term
T6 peptide: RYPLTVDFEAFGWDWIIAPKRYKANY
From the text: as §3

[6] = biological target: T7, hGDF8 peptide 8 (52-72), C-terminal biotinylated (human, C-terminal biotin); test: Luminex peptide beads
T7 construct: also called peptide 8 C-term
T7 peptide: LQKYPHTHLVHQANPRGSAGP
From the text: as §3

[7] = biological target: T8, hGDF8 peptide 7 (52-65), unmodified (human); test: Luminex peptide beads
T8 peptide: LQKYPHTHLVHQAN
From the text: as §3

[8] = biological target: T9, hGDF8 peptide 4 (48-65), C-terminal biotinylated (human); test: Luminex peptide beads
T9 construct: also called peptide 4 C-term
T9 peptide: EFVFLQKYPHTHLVHQAN-biotin
From the text: as §3

[9] = biological target: T10, hGDF8 peptide 6 (48-72), C-terminal biotinylated (human, C-terminal biotin); test: Luminex peptide beads
T10 construct: also called peptide 6 C-term
T10 peptide: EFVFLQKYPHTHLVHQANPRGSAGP
From the text: as §3

[10] = biological target: T11, hGDF8 peptide 2 (1-18), unmodified (human); test: Luminex peptide beads
T11 peptide: DFGLDCDEHSTESRCCRY
From the text: as §3

[11] = biological target: T12, hGDF8 peptide 1 (1-14), N-terminal biotinylated (human); test: Luminex peptide beads
T12 construct: also called peptide 1 N-term
T12 peptide: Biotin-DFGLDCDEHSTESR
From the text: as §3

[12] = biological target: T13, hGDF8 peptide 1 (1-14), unmodified (human); test: Luminex peptide beads
T13 peptide: DFGLDCDEHSTESR
From the text: as §3

[13] = biological target: T14, hGDF8 peptide 2 (1-18), C-terminal biotinylated (human, cysteine pairing not given here); test: Luminex peptide beads
T14 construct: also called peptide 2 C-term
T14 peptide: DFGLDCDEHSTESRCCRY-biotin
From the text: as §3

[14] = biological target: T15, hGDF8 peptide 11 (65-72), unmodified (human); test: Luminex peptide beads
T15 peptide: NPRGSAGP
From the text: as §3

[15] = biological target: T16, hGDF8 peptide 13 (75-105), C-terminal biotinylated (human, C-terminal biotin); test: Luminex peptide beads
T16 construct: also called peptide 13 C-term
T16 peptide: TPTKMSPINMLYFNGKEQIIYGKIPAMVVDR
From the text: as §3

[16] = biological target: T3, Human GDF8 homodimer (mature human …); test: SPR Biacore T100, captured on anti-hFc, 37°C
Description: as §2

B1: H4H1657N2 (antibody, V domains shown)
VH: EVQVLESGGDLVQPGGSLRLSCAASGFTFSAYAMTWVRQAPGKGLEWVSAISGSGGSAYYADSVKGRFTISRDNSKNTVYLQMNSLRAEDTAVYYCAKDGAWKMSGLDVWGQGTTVIVSS
VL: DIQMTQSPASLSASVGDRVTITCRASQDISDYLAWYQQKPGKIPRLLIYTTSTLQSGVPSRFRGSGSGTDFTLTISSLQPEDVATYYCQKYDSAPLTFGGGTKVEIK
notes: captured by anti-hFc, so human Fc
[1]
  binding result: no binding
[2]
  binding result: no binding
[3]
  Kd: 0.0283 nM
  T1/2: 3.37 h
hGDF11 homodimer
  binding result: no binding
[4]
  binding result: no binding (tested: 2.5 µg/ml)
[5]
  binding result: no binding (tested: 2.5 µg/ml)
[6]
  binding result: no binding (tested: 2.5 µg/ml)
[7]
  binding result: no binding (tested: 2.5 µg/ml)
[8]
  binding result: no binding (tested: 2.5 µg/ml)
[9]
  binding result: no binding (tested: 2.5 µg/ml)
[10]
  binding result: no binding (tested: 2.5 µg/ml)
[11]
  binding result: no binding (tested: 2.5 µg/ml)
[12]
  binding result: no binding (tested: 2.5 µg/ml)
[13]
  binding result: no binding (tested: 2.5 µg/ml)
[14]
  binding result: no binding (tested: 2.5 µg/ml)
[15]
  binding result: no binding (tested: 2.5 µg/ml)
[16]
  Kd: 0.0379 nM
  T1/2: 1.52 h
